Changes are numbered by the printed parent chain. Read-outs that look alike come from different tables or passages of the source. One block for each binder: values may come before it.
Tests used:
[1] = biological target: T1, corticotropin-releasing hormone (CRH) peptide (human and mouse (same sequence), not fully specified); experiment: cell-based or functional assay
T1 peptide: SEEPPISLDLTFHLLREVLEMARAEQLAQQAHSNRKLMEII

[2] = biological target: T2, CRH (CT-Biotin) (human and mouse (same sequence), biotin on an added C-terminal K (CRH-K-Biotin)); experiment: ELISA, biotinylated CRH on streptavidin plate
T2 construct: also called Peptide 4 (CRH-Biotin)
T2 peptide: T1 peptide
Procedure: (§1) Streptavidin (Thermo, Cat: 21125) was diluted in PBS to a concentration of 2 μg/ml. 100 μl of diluted streptavidin was added per well to ELISA microplates, and the plates were incubated overnight at 4° C. […] 100 μL of 3,3′,5,5′-tetramethylbenzidine (TMB) substrate (Biopanda, Cat: TMB-S-003) was added, and the plates were incubated at room temperature for 15 minutes. 100 μL of ELISA stopping solution (Solarbio, Cat #: C1058) was added to terminate the reaction, and the optical density at 450 nm (OD450 nm) was determined by an ELISA plate reader (Molecular Devices, Spectra max 384 plus).

[3] = biological target: T3, CRH (NT-Biotin) (human and mouse (same sequence), not fully specified; biotin at the N-terminus); experiment: ELISA, biotinylated CRH on streptavidin plate
T3 peptide: T1 peptide
Procedure: as §1

[4] = biological target: T1, corticotropin-releasing hormone (CRH) …; experiment: cell-based or functional assay
[5] = biological target: T1, corticotropin-releasing hormone (CRH) …; experiment: cell-based or functional assay
[6] = biological target: T2, CRH (CT-Biotin); experiment: ELISA, biotinylated CRH on streptavidin plate
Procedure: as §1

[7] = biological target: T3, CRH (NT-Biotin); experiment: ELISA, biotinylated CRH on streptavidin plate
Procedure: as §1

B2: PR302038 (antibody, human IgG1, kappa, V domains shown)
VH: EMQLVESGGGLVQPGGSLRLSCAASGFTFSNYWMNWVRQAPGKGLEWVAEIRLKSNNYATHYAESVKGRFTISRDDSKSSVYLQMNSLKTEDTAVYYCTVGTLVYWGQGTLVTVSS
VL: EIVLTQSPATLSLSPGERATLSCRASQSVSTSTYNYMHWFQQKPGQAPRLLIKFASNLESGIPARFSGSGSGTDFTLTISSLEPEDTAVYYCQHSWEIPYTFGQGTKLEIKR
notes: humanized variant of PR301777
EC50 [2]: 0.04 nM
EC50 [3]: 0.065 nM
hCRHR1 Luciferase Reporter Assay IC50 [4]: 3.34 nM
mCrhr1 Luciferase Reporter Assay IC50 [4]: 10.1 nM

B3: PR302041 (antibody, human IgG1, kappa, V domains shown)
VH: B2 VH
VL: DIQLTQSPSSLSASVGDRVTITCRASQSVSTSTYNYMHWFQQKPGKAPKLLIKFASNLESGVPSRFSGSGSGTDFTLTISSLQPEDTATYYCQHSWEIPYTFGQGTKLEIKR
notes: humanized variant of PR301777
EC50 [2]: 0.035 nM
EC50 [3]: 0.063 nM
hCRHR1 Luciferase Reporter Assay IC50 [4]: 2.54 nM
mCrhr1 Luciferase Reporter Assay IC50 [4]: 7.17 nM

B11: PR005656 (antibody, human IgG1, kappa, V domains shown)
VH: EVQLVESGGVLVQPGGSLRLSCAASGFTFSSYWMTWVRQAPGKGLEWVANIKQEGSEKYYVDSVKGRFTISRDNAKNSLFLQMNSLRAEDTAVYYCARTLIFDYWGQGTLVTVSS
VL: DIVMTQSPLSLPVTPGEPASISCRSSQSLLHSTGYNSLEWYLQKPGQSPQLLIYLGSNRASGVPDRFSGSGSGTDFTLKISRVEAEDVGIYYCMQTLQTPITFGQGTRLEIKR
notes: PTM-removal variant of PR004290
hCRHR1 Luciferase Reporter Assay IC50 [5]: 1.74 nM
mCrhr1 Luciferase Reporter Assay IC50 [5]: 4.26 nM
EC50 [6]: 0.033 nM
EC50 [7]: 0.026 nM

B13: PR005662 (antibody, human IgG1, kappa, V domains shown)
VH: B11 VH with E54D, G55A
VL: B11 VL with N36Q
notes: as for B11
hCRHR1 Luciferase Reporter Assay IC50 [5]: 15.8 nM
mCrhr1 Luciferase Reporter Assay IC50 [5]: 42.4 nM
EC50 [6]: 0.052 nM
EC50 [7]: 0.023 nM

B14: PR006142 (antibody, human IgG1, kappa, V domains shown)
VH: B11 VH
VL: B11 VL with N36D
notes: as for B11
hCRHR1 Luciferase Reporter Assay IC50 [5]: 4.4 nM
EC50 [6]: 0.046 nM
EC50 [7]: 0.048 nM

B15: PR006144 (antibody, human IgG1, kappa, V domains shown)
VH: B11 VH
VL: B11 VL with S37P
notes: as for B11
hCRHR1 Luciferase Reporter Assay IC50 [5]: 1.2 nM
mCrhr1 Luciferase Reporter Assay IC50 [5]: 3.6 nM
EC50 [6]: 0.032 nM
EC50 [7]: 0.033 nM

B16: PR005660 (antibody, human IgG1, kappa, V domains shown)
VH: B11 VH
VL: B11 VL with N36Q
notes: as for B11
hCRHR1 Luciferase Reporter Assay IC50 [5]: 10.3 nM
mCrhr1 Luciferase Reporter Assay IC50 [5]: 29 nM
EC50 [6]: 0.051 nM
EC50 [7]: 0.033 nM

B17: PR006146 (antibody, human IgG1, kappa, V domains shown)
VH: B11 VH with E54D, G55A
VL: B11 VL with N36D
notes: as for B11
hCRHR1 Luciferase Reporter Assay IC50 [5]: 4.89 nM
mCrhr1 Luciferase Reporter Assay IC50 [5]: 18 nM
EC50 [6]: 0.024 nM
EC50 [7]: 0.025 nM

B20: PR006147 (antibody, human IgG1, kappa, V domains shown)
VH: B11 VH with E54D, G55A
VL: B11 VL with N36H
notes: as for B11
hCRHR1 Luciferase Reporter Assay IC50 [5]: 12.1 nM
mCrhr1 Luciferase Reporter Assay IC50 [5]: 39.9 nM
EC50 [6]: 0.027 nM
EC50 [7]: 0.023 nM

B21: PR005658 (antibody, human IgG1, kappa, V domains shown)
VH: B11 VH with E54D
VL: B11 VL with N36Q
notes: as for B11
hCRHR1 Luciferase Reporter Assay IC50 [5]: 16.2 nM
mCrhr1 Luciferase Reporter Assay IC50 [5]: 29.7 nM
EC50 [6]: 0.044 nM
EC50 [7]: 0.026 nM

Other lines, results leading:

hCRHR1 Luciferase Reporter Assay IC50 [1]: 0.989 nM
mCrhr1 Luciferase Reporter Assay IC50 [1]: 4.92 nM
EC50 [2]: 0.022 nM
EC50 [3]: 0.062 nM
hCRHR1 Luciferase Reporter Assay IC50 [4]: 0.531 nM
mCrhr1 Luciferase Reporter Assay IC50 [4]: 2.39 nM
B1: PR302064 (antibody, human IgG1, kappa, V domains shown)
VH: B2 VH with Q13K, S80T
VL: DIVLTQSPDSLAVSLGERATINCRASQSVSTSTYNYMHWFQQKPGQPPKLLIKFASNLESGVPDRFSGSGSGTDFTLTISSLQAEDTAVYYCQHSWEIPYTFGQGTKLEIKR
notes: humanized variant of PR301777

EC50 [2]: 0.022 nM
EC50 [3]: 0.026 nM
hCRHR1 Luciferase Reporter Assay IC50 [4]: 6.87 nM
mCrhr1 Luciferase Reporter Assay IC50 [4]: 204 nM
B4: PR302034 (antibody, human IgG1, kappa, V domains shown)
VH: B2 VH with M2V, A49G, S79N, V81L
VL: B3 VL
notes: humanized variant of PR301777

EC50 [2]: 0.046 nM
EC50 [3]: 0.128 nM
hCRHR1 Luciferase Reporter Assay IC50 [4]: 15.3 nM
B5: PR302045 (antibody, human IgG1, kappa, V domains shown)
VH: B2 VH with M2V, R19K, P41S, A49G, S79N, S80T, V81A, V100R
VL: B2 VL
notes: humanized variant of PR301777

EC50 [2]: 0.028 nM
EC50 [3]: 0.037 nM
hCRHR1 Luciferase Reporter Assay IC50 [4]: 14 nM
B6: PR302031 (antibody, human IgG1, kappa, V domains shown)
VH: B2 VH with M2V, A49G, S79N, V81L
VL: B2 VL
notes: humanized variant of PR301777

EC50 [2]: 0.019 nM
EC50 [3]: 0.077 nM
hCRHR1 Luciferase Reporter Assay IC50 [4]: 2.49 nM
mCrhr1 Luciferase Reporter Assay IC50 [4]: 11.5 nM
B7: PR302066 (antibody, human IgG1, kappa, V domains shown)
VH: B2 VH with Q13K, S80T
VL: B2 VL
notes: humanized variant of PR301777

EC50 [2]: 0.024 nM
EC50 [3]: 0.043 nM
hCRHR1 Luciferase Reporter Assay IC50 [4]: 6.66 nM
mCrhr1 Luciferase Reporter Assay IC50 [4]: 33.3 nM
B8: PR302048 (antibody, human IgG1, kappa, V domains shown)
VH: B2 VH with M2V, R19K, P41S, A49G, S79N, S80T, V81A, V100R
VL: B3 VL
notes: humanized variant of PR301777

EC50 [2]: 0.018 nM
EC50 [3]: 0.048 nM
hCRHR1 Luciferase Reporter Assay IC50 [4]: 2.05 nM
mCrhr1 Luciferase Reporter Assay IC50 [4]: 7.32 nM
B9: PR302052 (antibody, human IgG1, kappa, V domains shown)
VH: B2 VH with R19K, P41S, S80T
VL: B2 VL
notes: humanized variant of PR301777

EC50 [2]: 0.016 nM
EC50 [3]: 0.061 nM
hCRHR1 Luciferase Reporter Assay IC50 [4]: 1.54 nM
mCrhr1 Luciferase Reporter Assay IC50 [4]: 4.4 nM
B10: PR302069 (antibody, human IgG1, kappa, V domains shown)
VH: B2 VH with Q13K, S80T
VL: B3 VL
notes: humanized variant of PR301777

hCRHR1 Luciferase Reporter Assay IC50 [5]: 2.5 nM
mCrhr1 Luciferase Reporter Assay IC50 [5]: 4.87 nM
EC50 [6]: 0.03 nM
EC50 [7]: 0.035 nM
B12: PR006148 (antibody, human IgG1, kappa, V domains shown)
VH: B11 VH with E54D, G55A
VL: B11 VL with S37P
notes: as for B11

hCRHR1 Luciferase Reporter Assay IC50 [5]: 13.6 nM
mCrhr1 Luciferase Reporter Assay IC50 [5]: 57.6 nM
EC50 [6]: 0.023 nM
EC50 [7]: 0.03 nM
B18: PR006151 (antibody, human IgG1, kappa, V domains shown)
VH: B11 VH with E54D, G55S
VL: B11 VL with N36H
notes: as for B11

hCRHR1 Luciferase Reporter Assay IC50 [5]: 2.19 nM
mCrhr1 Luciferase Reporter Assay IC50 [5]: 4.4 nM
EC50 [6]: 0.023 nM
EC50 [7]: 0.028 nM
B19: PR006152 (antibody, human IgG1, kappa, V domains shown)
VH: B11 VH with E54D, G55S
VL: B11 VL with S37P
notes: as for B11

hCRHR1 Luciferase Reporter Assay IC50 [5]: 12.4 nM
mCrhr1 Luciferase Reporter Assay IC50 [5]: 39.5 nM
EC50 [6]: 0.019 nM
EC50 [7]: 0.019 nM
B22: PR006153 (antibody, human IgG1, kappa, V domains shown)
VH: B11 VH with E54D, G55S
VL: B11 VL with N36S
notes: as for B11

hCRHR1 Luciferase Reporter Assay IC50 [5]: 8.04 nM
mCrhr1 Luciferase Reporter Assay IC50 [5]: 40.1 nM
EC50 [6]: 0.027 nM
EC50 [7]: 0.019 nM
B23: PR006149 (antibody, human IgG1, kappa, V domains shown)
VH: B11 VH with E54D, G55A
VL: B11 VL with N36S
notes: as for B11

hCRHR1 Luciferase Reporter Assay IC50 [5]: 5.88 nM
mCrhr1 Luciferase Reporter Assay IC50 [5]: 18.3 nM
EC50 [6]: 0.016 nM
EC50 [7]: 0.013 nM
B24: PR006150 (antibody, human IgG1, kappa, V domains shown)
VH: B11 VH with E54D, G55S
VL: B11 VL with N36D
notes: as for B11

— patent US20260042834A1 (HBM ALPHA THERAPEUTICS, published 2026)
